Assay results taken from FireProtDB (doi:10.1016/s0167-4838(98)00243-x).
“And” between values parts separate entries of the source, which are not always exact repeats. Equal entries are not always repeated.

B1: Chitosanase, P33665 (parent)
chain: MHSQHRTARIALAVVLTAIPASLATAGVGYASTQASTAVKAGAGLDDPHKKEIAMELVSSAENSSLDWKAQYKYIEDIGDGRGYTGGIIGFCSGTGDMLELVQHYTDLEPGNILAKYLPALKKVNGSASHSGLGTPFTKDWATAAKDTVFQQAQNDERDRVYFDPAVSQAKADGLRALGQFAYYDAIVMHGPGNDPTSFGGIRKTAMKKARTPAQGGDETTYLNAFLDARKAAMLTEAAHDDTSRVDTEQRVFLKAGNLDLNPPLKWKTYGDPYVINS

Variants of: B1
Settings: Streptomyces sp. (strain N174); pH 7; 42.7 °C; Thermal; CD; sodium phosphate 50 mM; transition: 3; reversible: yes(79%); structure 1CHK; whole UniProt chain shown

| Variant | ddG of mutation (higher = less stable) [kcal/mol] |
| --- | --- |
| W267F | 2.97 |
| W141F | 3.91 |

Same assay, conditions: Streptomyces sp. (strain N174); pH 7; 43.2 °C; Thermal; Fluorescence; sodium phosphate 50 mM; reversible: yes(81%); structure 1CHK; whole UniProt chain shown

| Variant | ddG of mutation (higher = less stable) [kcal/mol] |
| --- | --- |
| W267F | 2.51 |

Same assay, conditions: Streptomyces sp. (strain N174); pH 7; 52.2 °C; Thermal; CD; sodium phosphate 50 mM; transition: 3; reversible: yes(79%); structure 1CHK; whole UniProt chain shown

| Variant | ddG of mutation (higher = less stable) [kcal/mol] |
| --- | --- |
| W267F | 1.31 |
| W141F | 1.89 |

Same assay, conditions: Streptomyces sp. (strain N174); pH 7; Thermal; CD; sodium phosphate 50 mM; transition: 3; reversible: yes(79%); structure 1CHK; whole UniProt chain shown

| Variant | change of melting temperature, mutant - wild type (higher = more stable) | unfolding enthalpy (van 't Hoff) |
| --- | --- | --- |
| W267F | -6.8 °C and -6.4 °C | 135 kcal/mol and 65 kcal/mol |
| W141F | -7.1 °C and -7.5 °C | 170 kcal/mol and 80 kcal/mol |

Same assay, conditions: Streptomyces sp. (strain N174); pH 7; Thermal; Fluorescence; sodium phosphate 50 mM; reversible: yes(81%); structure 1CHK; whole UniProt chain shown

| Variant | Tm [°C] | change of melting temperature, mutant - wild type (higher = more stable) [°C] | unfolding enthalpy (van 't Hoff) [kcal/mol] |
| --- | --- | --- | --- |
| W267F | 37.3 | -5.9 | 132 |

Same assay, conditions: Streptomyces sp. (strain N174); pH 7; 43.2 °C; Thermal; Fluorescence; sodium phosphate 50 mM; reversible: yes(77%); structure 1CHK; whole UniProt chain shown

| Variant | ddG of mutation (higher = less stable) [kcal/mol] |
| --- | --- |
| W141F | 4.27 |

Same assay, conditions: Streptomyces sp. (strain N174); pH 7; 42.7 °C; Thermal; CD; sodium phosphate 50 mM; transition: 3; reversible: yes(68%); structure 1CHK; whole UniProt chain shown

| Variant | ddG of mutation (higher = less stable) [kcal/mol] |
| --- | --- |
| W68F W141F | 5.8 |

Same assay, conditions: Streptomyces sp. (strain N174); pH 7; 43.2 °C; Thermal; Fluorescence; sodium phosphate 50 mM; reversible: yes(80%); structure 1CHK; whole UniProt chain shown

| Variant | ddG of mutation (higher = less stable) [kcal/mol] |
| --- | --- |
| W68F W141F | 8.03 |

Same assay, conditions: Streptomyces sp. (strain N174); pH 7; 52.2 °C; Thermal; CD; sodium phosphate 50 mM; transition: 3; reversible: yes(68%); structure 1CHK; whole UniProt chain shown

| Variant | ddG of mutation (higher = less stable) [kcal/mol] |
| --- | --- |
| W68F W141F | 1.51 |

Same assay, conditions: Streptomyces sp. (strain N174); pH 7; Thermal; CD; sodium phosphate 50 mM; transition: 3; reversible: yes(68%); structure 1CHK; whole UniProt chain shown

| Variant | change of melting temperature, mutant - wild type (higher = more stable) | unfolding enthalpy (van 't Hoff) |
| --- | --- | --- |
| W68F W141F | -11.4 °C and -8 °C | 155 kcal/mol and 60 kcal/mol |

Same assay, conditions: Streptomyces sp. (strain N174); pH 7; Thermal; Fluorescence; sodium phosphate 50 mM; reversible: yes(80%); structure 1CHK; whole UniProt chain shown

| Variant | Tm [°C] | change of melting temperature, mutant - wild type (higher = more stable) [°C] | unfolding enthalpy (van 't Hoff) [kcal/mol] |
| --- | --- | --- | --- |
| W68F W141F | 31.2 | -12 | 204 |

Same assay, conditions: Streptomyces sp. (strain N174); pH 7; 42.7 °C; Thermal; CD; sodium phosphate 50 mM; transition: 3; reversible: yes(77%); structure 1CHK; whole UniProt chain shown

| Variant | ddG of mutation (higher = less stable) [kcal/mol] |
| --- | --- |
| W68F | 3.56 |

Same assay, conditions: Streptomyces sp. (strain N174); pH 7; 43.2 °C; Thermal; Fluorescence; sodium phosphate 50 mM; reversible: yes(75%); structure 1CHK; whole UniProt chain shown

| Variant | ddG of mutation (higher = less stable) [kcal/mol] |
| --- | --- |
| W68F | 4.43 |

Same assay, conditions: Streptomyces sp. (strain N174); pH 7; 52.2 °C; Thermal; CD; sodium phosphate 50 mM; transition: 3; reversible: yes(77%); structure 1CHK; whole UniProt chain shown

| Variant | ddG of mutation (higher = less stable) [kcal/mol] |
| --- | --- |
| W68F | 1.76 |

Same assay, conditions: Streptomyces sp. (strain N174); pH 7; Thermal; CD; sodium phosphate 50 mM; transition: 3; reversible: yes(77%); structure 1CHK; whole UniProt chain shown

| Variant | Tm [°C] | change of melting temperature, mutant - wild type (higher = more stable) [°C] | unfolding enthalpy (van 't Hoff) [kcal/mol] |
| --- | --- | --- | --- |
| W68F | 45.2 | -7 | 80 |

Same assay, conditions: Streptomyces sp. (strain N174); pH 7; Thermal; Fluorescence; sodium phosphate 50 mM; reversible: yes(75%); structure 1CHK; whole UniProt chain shown

| Variant | Tm [°C] | change of melting temperature, mutant - wild type (higher = more stable) [°C] | unfolding enthalpy (van 't Hoff) [kcal/mol] |
| --- | --- | --- | --- |
| W68F | 36.2 | -7 | 196 |
